From patent publication US20230257472A1 come the findings set out here.

The chains are these.
B1: B7 phage display single-chain antibody (scFv, part only; not given: linker; VH end may be cut, part only)
scFv, part: QIQLVQSGPELKKPGETVKISCKTSGYTFTNYGMNWVRQAPGKGLKWMGWINTYTGEPTYADDFKGRFAFSLETSAGTAYLQINNLENEDTATYFCARGDSFTTEILRNWYFDVWGAGTTDIQMTQTPASLSASVGETVTITCGASENIYGALNWYQRKQGKSPQLLIYGATNLADGMSSRFSGSGSGRQYSLKISSLHPDDVATYYCQNVLSTPWTFGGGTKLEMK
B2: F4 phage display single-chain antibody (scFv, part only; not given: scFv linker, phage partner, tag, V domains shown, not shown: another chain or arm of the molecule; large carriers; small tags and cut ends)
VH: QVQLKQSGAELVKPGASVKMSCKASGDTFPRYNMHWLKQTPGQGLEWIGAIFPGNGETSYNQNFKGKATLTADKSSSTAYMQLNSLTSEDSAVYYCARNSYYDYAWFTYWGQGTLVTVSA
VL: DIVMTQSPASLDVSLGQRATISCRASKSVSSSGYSFMHWYQQKPGQPPKLLISLASNLESGVPARFSGSGSGTDFTLTIYPVEEEDAATYYCQHSREFPPTFGSGTKLEIK
B3: B1 phage display single-chain antibody (scFv, part only; not given: scFv linker, phage partner, tag, V domains shown, not shown: another chain or arm of the molecule; large carriers; small tags and cut ends)
VH: QVQMQQSGAELVKPGASVMMSCKASGYTFTTYNIHWIKQTPGQGLEWIGDIYPGNGDASYNQKFRDRATLTADRSSSTAYLQLSSLTSEDSAIYYCATFSRFDGWFAYWGQGTLVTVSA
VL: DIVMSQSPASLAVSLGQRATISCRASRSVSTSGYSYMHWYQQKPGQPPKLLIYLASNLESGVPARFSGSGSGTNFTLNIHPVEEEDAATYYCQHSRELPYTFGGGTKLEIK

For this experiment, the target named is His-tagged CD70 protein extracellular domain (His-TNC-CD70) (human). The experiment can be described thus: phage ELISA, 2 ug/mL His-TNC-CD70 coated, anti-M13-HRP. For orientation: ELISA stands for enzyme-linked immunosorbent assay.
Sequence of His-tagged CD70 protein extracellular domain (His-TNC-CD70) (human) (chain, as listed by the source limits assumed): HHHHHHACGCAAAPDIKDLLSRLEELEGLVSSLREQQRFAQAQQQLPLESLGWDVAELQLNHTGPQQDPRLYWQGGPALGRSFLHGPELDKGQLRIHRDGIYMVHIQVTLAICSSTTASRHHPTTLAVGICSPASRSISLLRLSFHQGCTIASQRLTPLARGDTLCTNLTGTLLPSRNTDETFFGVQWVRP
B1 came in with a Reading at OD450 nm of microplate reader of 1.97 OD450.
Then B2, with 1.09 OD450.
B3 gave a Reading at OD450 nm of microplate reader of 1.16 OD450.
